Among the data in patent publication US20230192801A1 are hIRA mem (% rel to HI), relative binding affinity values, retold here.

The target of the test is membrane-associated human IR-A (plasma membranes of BHK cells stably transfected with human IR-A) (human) (UniProt P06213). Description: competition SPA, displacement of [125I-A14Y]-human insulin from membrane-associated human IR-A; affinity relative to human insulin standard. Background: Loss of bound radioactivity is the signal in a displacement assay; it reports binding, not function.

As to “A9E, B3E, B26E, desB30 human insulin (ligand)”, the hIRA mem (% rel to HI), relative binding affinity is 55.8 % rel to HI.

Regarding “A9E, B3E, B27E, B28E, desB30 human insulin (ligand)”, the hIRA mem (% rel to HI), relative binding affinity is 35.4 % rel to HI.
